Data as given in patent US20100136005A1.

Tests used:
rhesus CD18 (rhesus) = rhesus CD18 (rhesus) (UniProt H9Z8N5); experiment: cell-based or functional assay
human CD18 (human) = human CD18 (human) (UniProt P05107); experiment: cell-based or functional assay
human CD18 (human), sequence (P05107 23-769): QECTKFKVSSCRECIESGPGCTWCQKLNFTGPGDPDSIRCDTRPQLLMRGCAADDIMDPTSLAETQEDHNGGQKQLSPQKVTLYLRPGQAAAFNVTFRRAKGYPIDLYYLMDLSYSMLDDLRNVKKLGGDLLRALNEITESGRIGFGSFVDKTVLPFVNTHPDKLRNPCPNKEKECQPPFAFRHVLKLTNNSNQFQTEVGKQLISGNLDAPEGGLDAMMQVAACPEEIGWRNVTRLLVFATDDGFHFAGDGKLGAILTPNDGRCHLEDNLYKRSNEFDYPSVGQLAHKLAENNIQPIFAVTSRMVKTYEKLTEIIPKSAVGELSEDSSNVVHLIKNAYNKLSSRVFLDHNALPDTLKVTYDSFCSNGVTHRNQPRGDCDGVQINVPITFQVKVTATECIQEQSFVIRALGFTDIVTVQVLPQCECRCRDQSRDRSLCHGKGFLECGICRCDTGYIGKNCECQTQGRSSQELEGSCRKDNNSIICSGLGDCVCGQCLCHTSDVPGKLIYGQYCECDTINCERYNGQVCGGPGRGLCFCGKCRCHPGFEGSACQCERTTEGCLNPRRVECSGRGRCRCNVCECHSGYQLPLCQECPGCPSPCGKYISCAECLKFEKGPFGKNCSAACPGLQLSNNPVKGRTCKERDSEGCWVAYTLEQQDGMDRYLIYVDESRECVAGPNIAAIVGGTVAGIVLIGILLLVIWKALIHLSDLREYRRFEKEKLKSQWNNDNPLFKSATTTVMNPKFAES

IC50 Value (nM), RhLy:HuICAM cell adhesion (rhesus CD18 (rhesus)): 1.2 nM
IC50 Value (nM), RhLy:HuK cell adhesion (rhesus CD18 (rhesus)): 1.6 nM
IC50 Value (nM), rhesus mixed lymphocyte response (rhesus CD18 (rhesus)): 30.4 nM
IC50 Value (nM), Rh/HuCD11a:HuK cell adhesion (human CD18 (human)): 1.4 nM
Substance: murine anti-human CD18 antibody MHM23
